From publication PMC4981545 (Cell reports, 2016)

Experiments:
Assay in all cases: pull-down
[1] = molecular target: T1, GST-tagged BPV-1 E2 (BE2), immobilized (bovine papillomavirus type 1 (BPV-1), UniProt P03122 1-410)
T1 sequence: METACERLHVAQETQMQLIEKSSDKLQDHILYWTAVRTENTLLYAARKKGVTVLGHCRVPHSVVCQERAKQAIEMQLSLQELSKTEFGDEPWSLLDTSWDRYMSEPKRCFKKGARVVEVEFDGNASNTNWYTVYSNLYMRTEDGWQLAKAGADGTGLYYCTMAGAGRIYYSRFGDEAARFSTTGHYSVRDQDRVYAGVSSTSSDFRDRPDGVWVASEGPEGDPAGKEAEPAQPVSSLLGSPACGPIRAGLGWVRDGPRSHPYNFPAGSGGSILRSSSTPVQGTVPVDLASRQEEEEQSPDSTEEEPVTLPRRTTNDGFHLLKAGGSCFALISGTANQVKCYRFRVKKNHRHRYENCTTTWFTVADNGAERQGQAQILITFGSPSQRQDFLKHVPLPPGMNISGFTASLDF

[2] = molecular target: GST-tagged HPV-11 E2 (11E2), immobilized (HPV-11, UniProt P04015 1-367)
[3] = molecular target: GST-tagged HPV-16 E2 (16E2), immobilized (HPV-16, UniProt P03120 1-365)
[4] = molecular target: GST-tagged HPV-18 E2 (18E2), immobilized (HPV-18, UniProt P06790 1-365)
[5] = molecular target: Sf9-PDID of BRD4 with S499 substituted to alanine (human, UniProt O60885 287-530, S499 to alanine)
[6] = molecular target: Sf9-PDID of BRD4 with S488 substituted to alanine (human, UniProt O60885 287-530, S488 to alanine)
[7] = molecular target: Sf9-PDID of BRD4 with S498 substituted to alanine (human, UniProt O60885 287-530, S498 to alanine)
[8] = molecular target: Sf9-PDID of BRD4 with S492 substituted to alanine (human, UniProt O60885 287-530, S492 to alanine)
[9] = molecular target: Sf9-PDID of BRD4 with S494 substituted to alanine (human, UniProt O60885 287-530, S494 to alanine)

Measured: binding result

GST-tagged HPV-18 E2 (18E2), immobilized, sequence (P06790 whole entry): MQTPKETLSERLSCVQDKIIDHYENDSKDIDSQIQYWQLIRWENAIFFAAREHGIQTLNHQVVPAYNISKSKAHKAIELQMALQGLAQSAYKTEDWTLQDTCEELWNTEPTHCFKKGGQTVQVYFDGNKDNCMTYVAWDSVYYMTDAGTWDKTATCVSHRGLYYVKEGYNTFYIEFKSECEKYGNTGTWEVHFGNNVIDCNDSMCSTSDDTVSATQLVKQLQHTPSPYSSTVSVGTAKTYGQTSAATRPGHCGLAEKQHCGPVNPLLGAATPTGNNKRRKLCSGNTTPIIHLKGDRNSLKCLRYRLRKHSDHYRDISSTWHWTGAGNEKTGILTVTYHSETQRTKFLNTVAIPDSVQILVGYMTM
GST-tagged HPV-16 E2 (16E2), immobilized, sequence (P03120 whole entry): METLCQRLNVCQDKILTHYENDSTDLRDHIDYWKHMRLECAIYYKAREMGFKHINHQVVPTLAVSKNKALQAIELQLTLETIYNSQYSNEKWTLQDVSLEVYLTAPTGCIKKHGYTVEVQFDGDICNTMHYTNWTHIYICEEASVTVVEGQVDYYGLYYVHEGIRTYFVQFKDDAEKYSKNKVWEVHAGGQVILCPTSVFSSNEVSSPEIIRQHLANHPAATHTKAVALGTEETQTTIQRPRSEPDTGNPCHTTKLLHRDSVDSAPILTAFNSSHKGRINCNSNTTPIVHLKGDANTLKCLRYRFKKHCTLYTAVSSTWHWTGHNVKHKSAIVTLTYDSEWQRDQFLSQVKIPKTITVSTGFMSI
GST-tagged HPV-11 E2 (11E2), immobilized, sequence (P04015 whole entry): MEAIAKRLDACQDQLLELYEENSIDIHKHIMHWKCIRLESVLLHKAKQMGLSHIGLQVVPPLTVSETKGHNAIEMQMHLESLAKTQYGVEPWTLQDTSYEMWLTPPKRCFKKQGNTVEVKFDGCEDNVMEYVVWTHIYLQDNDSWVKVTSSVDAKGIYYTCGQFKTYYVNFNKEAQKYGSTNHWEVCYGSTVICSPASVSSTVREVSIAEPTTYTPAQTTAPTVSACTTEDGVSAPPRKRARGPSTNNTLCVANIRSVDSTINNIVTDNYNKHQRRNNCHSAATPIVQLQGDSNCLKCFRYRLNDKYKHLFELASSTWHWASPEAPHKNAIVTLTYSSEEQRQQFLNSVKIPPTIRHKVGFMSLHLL

B1: Sf9-BID of BRD4 (fragment 6) (domain or fragment, human, UniProt O60885 524-579, looked up)
chain: QLAALSQPQQNKPKKKEKDKKEKKKEKHKRKEEVEENKKSKAKEPPPKKTKKNNSS
binds: [1] | [2] | [3] | [4]

B2: Bac-expressed FLAG-tagged BID of BRD4 (aa 524–579, fragment c) (domain or fragment, human, UniProt O60885 524-579, looked up)
chain: B1 chain
binds: [1] | [2] | [3] | [4]

B3: GST-BID of BRD4 (domain or fragment, human, UniProt O60885 524-579, looked up)
chain: B1 chain
binds: [5] | [6] | [7] | [8] | [9]
